Test results taken from patent US20250002581A1.
Blank lines part the entries; values can stand above or below the binder they belong to.

Key:
PD1 (human) [1] = target: PD1 (human) (UniProt Q15116); experiment: flow cytometry on 293T-PD1 cells, antibody 10 ng/ml; average ± deviation
PD1 (human) [2] = target: PD1 (human) (UniProt Q15116); experiment: flow cytometry on 293T-PD1 cells, antibody 10 ng/ml, second anti-human Fc antibody; the filing calls this staining non-specific

Chain of PD1 (human) (Q15116 25-288): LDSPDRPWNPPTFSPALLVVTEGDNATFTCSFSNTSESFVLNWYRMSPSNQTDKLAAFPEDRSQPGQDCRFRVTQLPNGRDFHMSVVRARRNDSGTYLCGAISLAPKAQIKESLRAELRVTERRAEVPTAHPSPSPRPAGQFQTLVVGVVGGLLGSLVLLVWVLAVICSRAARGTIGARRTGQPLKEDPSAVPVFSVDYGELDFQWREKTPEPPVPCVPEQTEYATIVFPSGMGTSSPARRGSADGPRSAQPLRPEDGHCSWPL

293T-PD1 (%) (PD1 (human) [1]): 3.15%
B1: murine CH101 (antibody, V domains shown)
VH: EVQLEESGPDLVKPSQSLSLTCTVTGYSITSGFAWHWLRQFPGNRLEWMGYIHYSGSTNYNPSLKSRISITRDTSKNQFFLQLNSVTTEDTATFYCARSDFWGQGTFVTVSS
VL: DVVMTQTPLNLSVTFGQPVSISCTSSQSLLDRDGETFMNWLFQRPGQSPKRLIYLVSKLDFGVPDRFTGSGSGTDFTLKISRVEAEDLGIYYCWQGTHFPLTFGGGTKLEIK

293T-PD1 (%) (PD1 (human) [2]): 38.5%
B2: CH101-huIgG1(L/S) (antibody, not shown: a dimerising Fc or GST)
heavy: B1 VH
light: DVVMTQTPLNLSVTFGQPVSISCTSSQSLLDRDGETFMNWLFQRPGQSPKRLIYLVSKLDFGVPDRFTGSGSGTDFTLKISRVEAEDLGIYYCWQGTHFPLTFGGGTKLEIKRTVAAPSVFIFPPSDEQLKSGTASVVCLLNNFYPREAKVQWKVDNALQSGNSQESVTEQDSKDSTYSLSSTLTLSKADYEKHKVYACEVTHQGLSSPVTKSFNRGEC
